Assay results from patent publication US20240010735A1 (EISAI R AND D MANAGEMENT, published 2024).

Biological target: T1, human EphA8 extracellular region-SEAP-His protein (human, UniProt P29322 28-542)
T1 construct: extracellular domain; also called Eph receptor extracellular region-SEAP-His protein; not shown: secretory alkaline phosphatase (SEAP); histidine tag
T1 sequence (looked up): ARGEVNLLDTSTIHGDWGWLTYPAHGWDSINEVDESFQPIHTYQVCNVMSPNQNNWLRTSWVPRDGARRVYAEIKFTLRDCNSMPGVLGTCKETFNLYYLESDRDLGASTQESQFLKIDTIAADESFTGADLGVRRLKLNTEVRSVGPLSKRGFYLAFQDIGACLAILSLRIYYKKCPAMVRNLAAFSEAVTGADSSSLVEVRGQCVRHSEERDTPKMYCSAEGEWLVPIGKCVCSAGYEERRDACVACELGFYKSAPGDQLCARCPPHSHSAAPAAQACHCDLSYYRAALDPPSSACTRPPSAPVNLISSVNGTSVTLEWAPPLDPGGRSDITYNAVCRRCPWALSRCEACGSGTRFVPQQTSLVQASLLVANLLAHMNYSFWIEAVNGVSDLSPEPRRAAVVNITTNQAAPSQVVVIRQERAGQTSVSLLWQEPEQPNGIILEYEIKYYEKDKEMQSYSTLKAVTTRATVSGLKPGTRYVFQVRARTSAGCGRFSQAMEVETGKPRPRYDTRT
Experiment: ELISA: SEAP-His proteins (1 nM) captured on anti-6-His antibody, antibody A 10 µg/mL with human IgG 100 µg/mL, HRP anti-mouse IgG, OD450 as % of human EphA4-SEAP-His

B1: mouse anti-EphA4 monoclonal antibody (antibody A) (antibody, mouse IgG1, kappa, V domains shown)
VH: QVQLKQSGPSLVQPSQSLSITCTVSGFSLTRYGVHWVRQSPGKGLEWLGVIWRGGSTDYNAAFMSRLSITKDNSKSQVFFKMNSLQADDTAIYYCAKESLFGVYYDYGYYSMDYWGQGTSVTVSS
VL: DIQMTQSPSSLSASLGERVSLTCRASQEISGYLSWLQQKPDGTIKRLIYAASTLDSGVPKRFSGSRSGSDYSLTISSLESEDFADYYCLQYASYPLTFGAGTKLELKR
notes: purified from hybridoma supernatant
B1: no binding (tested: 10 µg/mL).
